Assay results reported in patent publication US20210040185A1.

Columns and labels:
Test in all cases: cell-based or functional assay
[1] = target: HIV-1 envelope (Env) of virus AC10.0.29 (HIV-1)
[2] = target: HIV-1 envelope (Env) of virus CAP45.2.00.G3 (HIV-1)
[3] = target: HIV-1 envelope (Env) of virus CNE20 (HIV-1)
[4] = target: HIV-1 envelope (Env) of virus DU172.17 (HIV-1)
[5] = target: HIV-1 envelope (Env) of virus REJO4541.67 (HIV-1)
[6] = target: HIV-1 envelope (Env) of virus WITO4160.33 (HIV-1)

3BNC117 (antibody)
IC50 of viral neutralization (Env.IMC.LucR virus, TZM-BL reporter cells) [1]: 11 µg/mL
IC50 of viral neutralization (Env.IMC.LucR virus, TZM-BL reporter cells) [2]: 2.7 µg/mL
IC50 of viral neutralization (Env.IMC.LucR virus, TZM-BL reporter cells) [3]: > 50 µg/mL
IC50 of viral neutralization (Env.IMC.LucR virus, TZM-BL reporter cells) [4]: 1.25 µg/mL
IC50 of viral neutralization (Env.IMC.LucR virus, TZM-BL reporter cells) [5]: 0.07 µg/mL
IC50 of viral neutralization (Env.IMC.LucR virus, TZM-BL reporter cells) [6]: 0.053 µg/mL
